Measurements from patent publication US10753947B2, “Methods for screening voltage-gated proteins” (D.E. Shaw Research, LLC, priority 2012, dated 2020).
pIC50: −log10 of the molar value. Like-named read-outs stand apart in the source and are kept apart here.

How the values were obtained:
[1] = biological target: T1, Kv2.1 T359S K360G A366D S367A I383M Y384T K386V (Homo sapiens, UniProt Q14721, A366D/I383M/K360G/K386V/S367A/T359S/Y384T); conditions: Table 5; read-out: IC50, channel Kv2.1 T359S K360G A366D S367A I383M Y384T K386V; cited from earlier work
T1 sequence (Q14721 1-858 T359S/K360G/A366D/S367A/I383M/Y384T/K386V): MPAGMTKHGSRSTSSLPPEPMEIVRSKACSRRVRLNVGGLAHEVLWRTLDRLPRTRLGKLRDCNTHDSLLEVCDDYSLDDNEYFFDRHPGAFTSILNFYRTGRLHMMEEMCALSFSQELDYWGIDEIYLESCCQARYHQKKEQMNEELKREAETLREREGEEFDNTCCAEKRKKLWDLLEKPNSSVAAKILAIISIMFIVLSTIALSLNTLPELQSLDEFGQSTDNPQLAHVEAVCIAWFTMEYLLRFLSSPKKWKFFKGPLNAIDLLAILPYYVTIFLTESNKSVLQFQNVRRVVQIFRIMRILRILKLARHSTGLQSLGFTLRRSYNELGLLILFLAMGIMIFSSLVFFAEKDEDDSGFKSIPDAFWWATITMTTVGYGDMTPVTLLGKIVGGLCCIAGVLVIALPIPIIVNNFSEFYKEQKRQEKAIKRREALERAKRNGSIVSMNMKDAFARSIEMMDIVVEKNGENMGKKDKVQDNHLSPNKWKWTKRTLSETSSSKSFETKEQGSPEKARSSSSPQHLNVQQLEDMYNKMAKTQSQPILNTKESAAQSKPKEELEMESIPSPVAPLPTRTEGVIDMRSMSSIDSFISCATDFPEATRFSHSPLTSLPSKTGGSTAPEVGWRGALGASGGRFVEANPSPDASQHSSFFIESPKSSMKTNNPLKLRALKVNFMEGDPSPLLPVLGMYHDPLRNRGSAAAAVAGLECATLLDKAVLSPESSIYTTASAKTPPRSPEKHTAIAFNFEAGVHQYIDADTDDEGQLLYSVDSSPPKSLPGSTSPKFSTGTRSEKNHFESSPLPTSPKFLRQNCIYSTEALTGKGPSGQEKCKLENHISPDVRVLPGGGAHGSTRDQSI

Kv1.3 = Kv1.3 (Homo sapiens, UniProt P22001); conditions: cited from earlier work
Kv1.3, sequence (P22001 whole entry): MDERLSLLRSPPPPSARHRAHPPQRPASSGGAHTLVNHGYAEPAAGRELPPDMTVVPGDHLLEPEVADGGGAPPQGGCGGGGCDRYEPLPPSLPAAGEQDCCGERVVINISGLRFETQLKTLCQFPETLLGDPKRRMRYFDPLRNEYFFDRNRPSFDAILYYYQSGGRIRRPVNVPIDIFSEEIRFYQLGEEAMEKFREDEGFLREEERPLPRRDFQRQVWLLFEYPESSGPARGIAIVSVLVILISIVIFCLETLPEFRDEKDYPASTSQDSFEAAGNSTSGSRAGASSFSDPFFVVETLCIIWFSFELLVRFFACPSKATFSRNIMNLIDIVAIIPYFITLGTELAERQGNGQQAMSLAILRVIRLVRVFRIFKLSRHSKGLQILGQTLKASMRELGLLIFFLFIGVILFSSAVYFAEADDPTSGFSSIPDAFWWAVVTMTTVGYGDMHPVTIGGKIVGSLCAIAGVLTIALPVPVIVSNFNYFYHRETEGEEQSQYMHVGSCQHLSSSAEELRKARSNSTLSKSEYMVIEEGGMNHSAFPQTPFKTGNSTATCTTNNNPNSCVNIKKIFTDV

[2] = system: Kv2.1 R293S/R294S/R300S (R-1S/R0S/R2S); test: Omega currents (Iω) of Kv2.1 R-1S/R0S/R2S in Xenopus oocytes, two electrode voltage-clamp; type: cell-based, human
From the text: The coding cDNAs of KV2.1 “wild-type” (hereinafter WT) base construct (hKv2.1-m7-c3 is human Kv2.1, residues 1-858, mutated to confer AgTx2 sensitivity and to remove extracellular cysteine residues) was synthesized (Entelchon GmbH) and cloned into the high expression vector pBSTA.
Mutations Kv2.1 R294N (hereinafter R0N), Kv2.1 R300S (hereinafter R2S), Kv2.1 R294C/R300S (hereinafter R0C/R2S), Kv2.1 R293S/R294S (hereinafter R-1S/R0S), Kv2.1 R293S/R294C (hereinafter R-1S/R0C), Kv2.1 R293S/R294S/R300S (hereinafter R-1S/R0S/R2S), Kv2.1 R293S/R294C/R300S (hereinafter R-1S/R0C/R2S) were introduced using the QuikChange® Lightning Site-Directed Mutagenesis Kit (Stratagene) with mutagenic primers according to the manufacturer's instructions. All constructs were checked by restriction site mapping and sequencing.
Transcripted cRNA was produced using the mMessage mMachine kit (Ambion Inc.). Two to four days past injection of cRNA into stage V-VI Xenopus oocytes (NASCO) potassium currents through the alpha pore (Iα) were recorded with the two electrode voltage-clamp technique making use of a TURBO TEC-05× amplifier (npi electronic GmbH). Currents were filtered at 10 kHz and sampled at 20 kHz. The bath solution contained (in mM): NaCl 96, KCl 2, CaCl2 1, MgCl2 1 and HEPES 5 (pH 7.5). Voltage-recording and current-injecting microelectrodes were filled with 3 M KCl and pulled to have resistances between 0.2 and 1 MΩ (see Stork et al., 2007). The pClamp software package v.10.1 (Molecular Devices, Inc.) was used for data acquisition and analysis.
Recording of alpha currents (Iα): Pulses of 100 ms were applied from ˜60 to +60 mV in 10 mV steps at 1 Hz from a holding potential of ˜80 mV to the Kv2.1 channel constructs to measure alpha currents (Iα). Passive leak currents were subtracted online using a P/4 procedure: pClamp software generates a series of scaled-down replica sweeps of the main stimulus waveform. […] The cell's response to the subsweeps is used to calculate the degree of passive cellular current leak. This is then subtracted from acquired data on the associated input signal. Recording of omega currents (Iω): Pulses of 10 ms were applied from a holding potential of ˜80 to ˜300 mV in 20 mV steps at 0.3 Hz to the Kv2.1 channel constructs. Iω were recorded without leak subtraction.
AgTx2 (Sigma Aldrich) was reconstituted according to manufacturer's instructions with 10 mM Tris, pH 7.5, containing 100 mM sodium chloride, 0.1% bovine serum albumin, and 1 mM EDTA. LaCl3 was from Sigma Aldrich; MTSEA, MTSES and MTSET were from Biotium.
La^3+, AgTx2, MTSEA, MTSES and MTSET and were applied to Xenopus oocytes by means of a fast perfusion technique (ScreeningTool as described by Baburin et al., 2006). Origin software v.7.0 (OriginLab Corp.) was employed for data analysis. Inhibition of inward currents was defined as 1−Iω,drug/Iω,control, where Iω,drug is the current response in the presence of a given concentration of lanthanum (La^3+) and Iω, control is the control current through the omega pore. The concentration-inhibition curve was fitted using the Hill equation: Iω,drug/Iω,control=A+[…] where IC50 is the concentration at which Iω inhibition is half-maximal, C is the applied La^3+ concentration, A is the fraction of Iω current that blocked and nH is the Hill coefficient. Data are given as mean±SE (n=number of experiments).

Row | Substance | pIC50 [1] | IC50, channel Kv1.3 (Kv1.3; Table 5, result in words) | Effect on omega current (Iω) ([2]; 100 nM GxTx-1E, 5 minutes application) | pIC50 (Kv1.3; Table 3, read-out: IC50 Values of Kv1.3 ion channel modulating agent) | pIC50 (Kv1.3; Table 5, read-out: IC50, channel Kv1.3) | Sensitivity of Kv1.3 to the scorpion toxin (Kv1.3; text b541) | Inhibition of inward currents at negative potentials (Iω) ([2]; 10 nM AgTx2, after 5 minutes)
1 | Guangxitoxin (EGECGGFWWKCGSGKPACCPKYVCSPKWGLCNFPMP) [GxTx-1E] | ~8.70 | No effect | enhanced | – | – | – | –
2 | Agitotoxin-2 (GVPINVSCTGSPQCIKPCKDAGMRFGKCMNRKCHCTPK) [AgTx2] | 11.15 | – | – | 11.40 | 11.40 | sensitive | not inhibited
